Results as given in the supplement of paper PMC5998384.

Assays:
HeLa Kyoto [1] = assay: solubility change mitosis vs G1/S (difference of NP-40 vs SDS log2 ratios) (log2 ratio difference); higher = more soluble in mitosis
HeLa Kyoto [2] = assay: thermal stability score vs G1/S (z-score of summed log2 fold changes over temperatures); higher = more thermally stable than in G1/S
HeLa Kyoto [3] = assay: melting temperature (median over replicates), in situ; higher = more thermally stable
HeLa Kyoto [4] = assay: solubility in G1/S (NP-40 vs SDS abundance) (log2 ratio); higher = more soluble; conditions: cell cycle stage: G1/S
[5] = cell cycle stage: early G1 (4.5 h after nocodazole release)
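Throughout, for melting temperature (median over replicates), in situ: HeLa Kyoto cells synchronized by double thymidine or nocodazole block, proteins quantified by TMT10plex mass spectrometry, three independent biological replicates.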
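Throughout, for solubility change mitosis vs G1/S (difference of NP-40 vs SDS log2 ratios): synchronized HeLa Kyoto cells (double thymidine block for G1/S, nocodazole release for mitosis), protein amounts in NP-40 versus SDS lysates quantified by mass spectrometry, three biological replicates.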
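Throughout, for solubility in G1/S (NP-40 vs SDS abundance): HeLa Kyoto cells arrested at G1/S by double thymidine block, proteins quantified by TMT10plex mass spectrometry in mild NP-40 versus SDS extracts, three biological replicates.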
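Throughout, for thermal stability score vs G1/S (z-score of summed log2 fold changes over temperatures): synchronized HeLa Kyoto cells, proteins quantified by TMT10plex mass spectrometry, three biological replicates, mitosis taken 0.5 h after nocodazole release, G1/S directly after double thymidine block.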

| Sequence | solubility change mitosis (log2) (HeLa Kyoto [1]) | thermal stability score (HeLa Kyoto [2]; [5]) | thermal stability score (HeLa Kyoto [2]; cell cycle stage: mitosis) | melting temperature (HeLa Kyoto [3]; cell cycle stage: G1/S) | melting temperature (HeLa Kyoto [3]; cell cycle stage: mitosis) | solubility in G1/S (log2) (HeLa Kyoto [4]) |
| --- | --- | --- | --- | --- | --- | --- |
| MDRSGFGEISSPVIREAEVTRTARKQSAQKRVLLQASQDENFGNTTPRNQVIPRTPSSFRQPFTPTSRSLLRQPDISCILGTGGKSPRLTQSSGFFGNLSMVTNLDDSNWAAAFSSQRSGLFTNTEPHSITEDVTISAVMLREDDPGEAASMSMFSDFLQSFLKHSSSTVFDLVEEYENICGSQVNILSKIVSRATPGLQKFSKTASMLWLLQQEMVTWRLLASLYRDRIQSALEEESVFAVTAVNASEKTVVEALFQRDSLVRQSQLVVDWLESIAKDEIGEFSDNIEFYAKSVYWENTLHTLKQRQLTSYVGSVRPLVTELDPDAPIRQKMPLDDLDREDEVRLLKYLFTLIRAGMTEEAQRLCKRCGQAWRAATLEGWKLYHDPNVNGGTELEPVEGNPYRRIWKISCWRMAEDELFNRYERAIYAALSGNLKQLLPVCDTWEDTVWAYFRVMVDSLVEQEIQTSVATLDETEELPREYLGANWTLEKVFEELQATDKKRVLEENQEHYHIVQKFLILGDIDGLMDEFSKWLSKSRNNLPGHLLRFMTHLILFFRTLGLQTKEEVSIEVLKTYIQLLIREKHTNLIAFYTCHLPQDLAVAQYALFLESVTEFEQRHHCLELAKEADLDVATITKTVVENIRKKDNGEFSHHDLAPALDTGTTEEDRLKIDVIDWLVFDPAQRAEALKQGNAIMRKFLASKKHEAAKEVFVKIPQDSIAEIYNQCEEQGMESPLPAEDDNAIREHLCIRAYLEAHETFNEWFKHMNSVPQKPALIPQPTFTEKVAHEHKEKKYEMDFGIWKGHLDALTADVKEKMYNVLLFVDGGWMVDVREDAKEDHERTHQMVLLRKLCLPMLCFLLHTILHSTGQYQECLQLADMVSSERHKLYLVFSKEELRKLLQKLRESSLMLLDQGLDPLGYEIQL [NUP107] | 0.428 | -2.75 | -3.13 | 51.1 °C | 49.3 °C | -0.526 |
| MDSALSDPHNGSAEAGGPTNSTTRPPSTPEGIALAYGSLLLMALLPIFFGALRSVRCARGKNASDMPETITSRDAARFPIIASCTLLGLYLFFKIFSQEYINLLLSMYFFVLGILALSHTISPFMNKFFPASFPNRQYQLLFTQGSGENKEEIINYEFDTKDLVCLGLSSIVGVWYLLRKHWIANNLFGLAFSLNGVELLHLNNVSTGCILLGGLFIYDVFWVFGTNVMVTVAKSFEAPIKLVFPQDLLEKGLEANNFAMLGLGDVVIPGIFIALLLRFDISLKKNTHTYFYTSFAAYIFGLGLTIFIMHIFKHAQPALLYLVPACIGFPVLVALAKGEVTEMFSYEESNPKDPAAVTESKEGTEASASKGLEKKEK [HM13] | -0.167 | -1.07 | -1.15 | 60.5 °C | 59.8 °C | -0.106 |
| MDSGSSSSDSAPDCWDQVDMESPGSAPSGDGVSSAVAEAQREPLSSAFSRKLNVNAKPFVPNVHAAEFVPSFLRGPTQPPTLPAGSGSNDETCTGAGYPQGKRMGRGAPVEPSREEPLVSLEGSNSAVTMELSEPVVENGEVEMALEESWEHSKEVSEAEPGGGSSGDSGPPEESGQEMMEEKEEIRKSKSVIVPSGAPKKEHVNVVFIGHVDAGKSTIGGQIMFLTGMVDKRTLEKYEREAKEKNRETWYLSWALDTNQEERDKGKTVEVGRAYFETERKHFTILDAPGHKSFVPNMIGGASQADLAVLVISARKGEFETGFEKGGQTREHAMLAKTAGVKHLIVLINKMDDPTVNWSIERYEECKEKLVPFLKKVGFSPKKDIHFMPCSGLTGANIKEQSDFCPWYTGLPFIPYLDNLPNFNRSIDGPIRLPIVDKYKDMGTVVLGKLESGSIFKGQQLVMMPNKHNVEVLGILSDDTETDFVAPGENLKIRLKGIEEEEILPGFILCDPSNLCHSGRTFDVQIVIIEHKSIICPGYNAVLHIHTCIEEVEITALISLVDKKSGEKSKTRPRFVKQDQVCIARLRTAGTICLETFKDFPQMGRFTLRDEGKTIAIGKVLKLVPEKD [GSPT2] | -0.124 | -1.05 | -1.43 |  | 53.5 °C | 0.153 |
| MDSKESLTPGREENPSSVLAQERGDVMDFYKTLRGGATVKVSASSPSLAVASQSDSKQRRLLVDFPKGSVSNAQQPDLSKAVSLSMGLYMGETETKVMGNDLGFPQQGQISLSSGETDLKLLEESIANLNRSTSVPENPKSSASTAVSAAPTEKEFPKTHSDVSSEQQHLKGQTGTNGGNVKLYTTDQSTFDILQDLEFSSGSPGKETNESPWRSDLLIDENCLLSPLAGEDDSFLLEGNSNEDCKPLILPDTKPKIKDNGDLVLSSPSNVTLPQVKTEKEDFIELCTPGVIKQEKLGTVYCQASFPGANIIGNKMSAISVHGVSTSGGQMYHYDMNTASLSQQQDQKPIFNVIPPIPVGSENWNRCQGSGDDNLTSLGTLNFPGRTVFSNGYSSPSMRPDVSSPPSSSSTATTGPPPKLCLVCSDEASGCHYGVLTCGSCKVFFKRAVEGQHNYLCAGRNDCIIDKIRRKNCPACRYRKCLQAGMNLEARKTKKKIKGIQQATTGVSQETSENPGNKTIVPATLPQLTPTLVSLLEVIEPEVLYAGYDSSVPDSTWRIMTTLNMLGGRQVIAAVKWAKAIPGFRNLHLDDQMTLLQYSWMFLMAFALGWRSYRQSSANLLCFAPDLIINEQRMTLPCMYDQCKHMLYVSSELHRLQVSYEEYLCMKTLLLLSSVPKDGLKSQELFDEIRMTYIKELGKAIVKREGNSSQNWQRFYQLTKLLDSMHEVVENLLNYCFQTFLDKTMSIEFPEMLAEIITNQIPKYSNGNIKKLLFHQK [NR3C1] | -0.168 | 0.508 | 1.98 | 48.2 °C | 49.3 °C | 0.0188 |
